The values that follow come from article PMC3110719.

In this data set the test system is Nc1ncnc2c1ncn2[C@@H]1O[C@H](COP(=O)(O)OP(=O)(O)OP(=O)(O)O)[C@@H](O)[C@H]1O. Put plainly: purified protein.

Where two headings read alike, the source gives them in different places.

The Km is the substrate concentration at which the rate is half of its maximum. As to MsbA (Escherichia coli K-12; D512G), where the note is “1 µM MsbA, 0-1 mM ATP, 30 min”, the Michaelis-Menten constant (Km) came out at 122 ± 29 µM. MsbA (Escherichia coli K-12; L511P): the Km is recorded as 23 ± 12 µM.
